# In paper PMC11828469 (2025):
# B1: GST–Rabin8-WT [human] / 6His–Rab11a [not stated] (parent complex)
# chain 1: MANDPLEGFHEVNLASPTSPDLLGVYESGTQEQTTSPSVIYRPHPSALSSVPIQANALDVSELPTQPVYSSPRRLNCAEISSISFHVTDPAPCSTSGVTAGLTKLTTRKDNYNAEREFLQGATITEACDGSDDIFGLSTDSLSRLRSPSVLEVREKGYERLKEELAKAQRELKLKDEECERLSKVRDQLGQELEELTASLFEEAHKMVREANIKQATAEKQLKEAQGKIDVLQAEVAALKTLVLSSSPTSPTQEPLPGGKTPFKKGHTRNKSTSSAMSGSHQDLSVIQPIVKDCKEADLSLYNEFRLWKDEPTMDRTCPFLDKIYQEDIFPCLTFSKSELASAVLEAVENNTLSIEPVGLQPIRFVKASAVECGGPKKCALTGQSKSCKHRIKLGDSSNYYYISPFCRYRITSVCNFFTYIRYIQQGLVKQQDVDQMFWEVMQLRKEMSLAKLGYFKEEL
# chain 2: MGTRDDEYDYLFKVVLIGDSGVGKSNLLSRFTRNEFNLESKSTIGVEFATRSIQVDGKTIKAQIWDTAGQERYRAITSAYYRGAVGALLVYDIAKHLTYENVERWLKELRDHADSNIVIMLVGNKSDLRHLRAVPTDEARAFAEKNGLSFIETSALDSTNVEAAFQTILTEIYRIVSQKQMSDRRENDMSPSNNVVPIHVPPTTENKPKVQCCQNI
# B2: GST–Rabin8-WT [human] / 6His–Rab8a [not stated] (parent complex)
# chain 1: B1 chain 1
# chain 2: MAKTYDYLFKLLLIGDSGVGKTCVLFRFSEDAFNSTFISTIGIDFKIRTIELDGKRIKLQIWDTAGQERFRTITTAYYRGAMGIMLVYDITNEKSFDNIRNWIRNIEEHASADVEKMILGNKCDVNDKRQVSKERGEKLALDYGIKFMETSAKANINVENAFFTLARDIKAKMDKKLEGNSPQGSNQGVKITPDQQKRSSFFRCVLL
# Variants of: B1
# Experiment: GST pull-down, immunoblot quantified with Image Lab 6.1; purified Rab11 in the presence of GTPγS; n=3; P=0.0012 vs WT; parent: 8.5; read off a plot
row,response,Variant
1,~2.5,"chain 1 MANDPLEGFHEVNLASPTSPDLLGVYESGTQEQTTSPSVIYRPHPSALSSVPIQANALDVSELPTQPVYSSPRRLNCAEISSISFHVTDPAPCSTSGVTAGLTKLTTRKDNYNAEREFLQGATITEACDGSDDIFGLSTDSLSRLRSPSVLEVREKGYERLKEELAKAQRELKLKDEECERLSKVRDQLGQELEELTASLFEEAHKMVREANIKQATAEKQLKEAQGKIDVLQAEVAALKTLVLSSSPTSPTQEPLPGGKTPFKKGHTRNKSTSSAMSGSHQDLSVIQPIVKDCKEADLSLYNEFRLWKDEPTMDRTCPFLDKIYQEDIFPCLTFSKSELASAVLEAVENNTLSIEPVGLQPIRFVKASAVECGGPKKCALTGQSKSCKHRIKLGDSSNYYYISPFCRYRITSVCNFFAYIRAIQQGAVKQQDVDQMFWEVMQLRKEMSLAKLGYFKEEL [chain 1 T419A, chain 1 Y423A, chain 1 L428A]"

# Variants of: B1
# Experiment: GST pull-down, immunoblot quantified with Image Lab 6.1; purified Rab11 in the presence of GTPγS; n=3; parent: 8.5; read off a plot
row,response,Variant
1,~9.5,chain 1 MANDPLEGFHEVNLASPTSPDLLGVYESGTQEQTTSPSVIYRPHPSALSSVPIQANALDVSELPTQPVYSSPRRLNCAEISSISFHVTDPAPCSTSGVTAGLTKLTTRKDNYNAEREFLQGATITEACDGSDDIFGLSTDSLSRLRSPSVLEVREKGYERLKEELAKAQRELKLKDEECERLSKVRDQLGQALEELTASLFEEAHKMVREANIKQATAEKQLKEAQGKIDVLQAEVAALKTLVLSSSPTSPTQEPLPGGKTPFKKGHTRNKSTSSAMSGSHQDLSVIQPIVKDCKEADLSLYNEFRLWKDEPTMDRTCPFLDKIYQEDIFPCLTFSKSELASAVLEAVENNTLSIEPVGLQPIRFVKASAVECGGPKKCALTGQSKSCKHRIKLGDSSNYYYISPFCRYRITSVCNFFTYIRYIQQGLVKQQDVDQMFWEVMQLRKEMSLAKLGYFKEEL [chain 1 E192A]
2,~9,chain 1 MANDPLEGFHEVNLASPTSPDLLGVYESGTQEQTTSPSVIYRPHPSALSSVPIQANALDVSELPTQPVYSSPRRLNCAEISSISFHVTDPAPCSTSGVTAGLTKLTTRKDNYNAEREFLQGATITEACDGSDDIFGLSTDSLSRLRSPSVLEVREKGYERLKEELAKAQRELKLKDEECERLSKVRDQLGQELEELTASLAEEAHKMVREANIKQATAEKQLKEAQGKIDVLQAEVAALKTLVLSSSPTSPTQEPLPGGKTPFKKGHTRNKSTSSAMSGSHQDLSVIQPIVKDCKEADLSLYNEFRLWKDEPTMDRTCPFLDKIYQEDIFPCLTFSKSELASAVLEAVENNTLSIEPVGLQPIRFVKASAVECGGPKKCALTGQSKSCKHRIKLGDSSNYYYISPFCRYRITSVCNFFTYIRYIQQGLVKQQDVDQMFWEVMQLRKEMSLAKLGYFKEEL [chain 1 F201A]

# Variants of: B2
# Experiment: GST pull-down, immunoblot quantified with Image Lab 6.1; purified Rab8 in the presence of GDPβS; n=3; parent: 4.5; read off a plot
row,response,Variant
1,~4.5,chain 1 MANDPLEGFHEVNLASPTSPDLLGVYESGTQEQTTSPSVIYRPHPSALSSVPIQANALDVSELPTQPVYSSPRRLNCAEISSISFHVTDPAPCSTSGVTAGLTKLTTRKDNYNAEREFLQGATITEACDGSDDIFGLSTDSLSRLRSPSVLEVREKGYERLKEELAKAQRELKLKDEECERLSKVRDQLGQALEELTASLFEEAHKMVREANIKQATAEKQLKEAQGKIDVLQAEVAALKTLVLSSSPTSPTQEPLPGGKTPFKKGHTRNKSTSSAMSGSHQDLSVIQPIVKDCKEADLSLYNEFRLWKDEPTMDRTCPFLDKIYQEDIFPCLTFSKSELASAVLEAVENNTLSIEPVGLQPIRFVKASAVECGGPKKCALTGQSKSCKHRIKLGDSSNYYYISPFCRYRITSVCNFFTYIRYIQQGLVKQQDVDQMFWEVMQLRKEMSLAKLGYFKEEL [chain 1 E192A]
2,~4.5,chain 1 MANDPLEGFHEVNLASPTSPDLLGVYESGTQEQTTSPSVIYRPHPSALSSVPIQANALDVSELPTQPVYSSPRRLNCAEISSISFHVTDPAPCSTSGVTAGLTKLTTRKDNYNAEREFLQGATITEACDGSDDIFGLSTDSLSRLRSPSVLEVREKGYERLKEELAKAQRELKLKDEECERLSKVRDQLGQELEELTASLAEEAHKMVREANIKQATAEKQLKEAQGKIDVLQAEVAALKTLVLSSSPTSPTQEPLPGGKTPFKKGHTRNKSTSSAMSGSHQDLSVIQPIVKDCKEADLSLYNEFRLWKDEPTMDRTCPFLDKIYQEDIFPCLTFSKSELASAVLEAVENNTLSIEPVGLQPIRFVKASAVECGGPKKCALTGQSKSCKHRIKLGDSSNYYYISPFCRYRITSVCNFFTYIRYIQQGLVKQQDVDQMFWEVMQLRKEMSLAKLGYFKEEL [chain 1 F201A]
3,~4.5,"chain 1 MANDPLEGFHEVNLASPTSPDLLGVYESGTQEQTTSPSVIYRPHPSALSSVPIQANALDVSELPTQPVYSSPRRLNCAEISSISFHVTDPAPCSTSGVTAGLTKLTTRKDNYNAEREFLQGATITEACDGSDDIFGLSTDSLSRLRSPSVLEVREKGYERLKEELAKAQRELKLKDEECERLSKVRDQLGQELEELTASLFEEAHKMVREANIKQATAEKQLKEAQGKIDVLQAEVAALKTLVLSSSPTSPTQEPLPGGKTPFKKGHTRNKSTSSAMSGSHQDLSVIQPIVKDCKEADLSLYNEFRLWKDEPTMDRTCPFLDKIYQEDIFPCLTFSKSELASAVLEAVENNTLSIEPVGLQPIRFVKASAVECGGPKKCALTGQSKSCKHRIKLGDSSNYYYISPFCRYRITSVCNFFAYIRAIQQGAVKQQDVDQMFWEVMQLRKEMSLAKLGYFKEEL [chain 1 T419A, chain 1 Y423A, chain 1 L428A]"
